Key:
[1] = target: p53 (Danio rerio) (UniProt P79734); conditions: cited from earlier work
[2] = target: the molecule itself; assay: SEC-MALS; DRp53(302-345) at 185, 46 and 9 uM (monomer concentration at the peak); room temperature, 50 mM Tris pH 7.5, 150 mM NaCl, Superdex 75 10/300
[3] = target: the molecule itself; assay: SEC-MALS; DRp53(302-331) at high concentrations (170 and 870 uM monomer at the peak); room temperature, 50 mM Tris pH 7.5, 150 mM NaCl, Superdex 75 10/300
[4] = target: the molecule itself; assay: crystal structure; DRp53(302-346), two crystal forms (C222(1), 1.97 A; P2(1), 2.2 A), grown at 20 C with zinc acetate and polyethylene glycol

For p53 (from UniProt P79734), which Kd [1] is on record?
Its Kd is 3.6 nM.

B1: zebrafish p53 tetramerization domain, residues 302-345, DRp53(302-345) (domain or fragment, zebrafish (Danio rerio), UniProt G1K2L5 302-345, looked up)
chain: EEIFTLQVRGRERYEILKKLNDSLELSDVVPASDAEKYRQKFMT
notes: numbering on UniProt/TrEMBL entry G1K2L5 (length of 374 amino acids); Used for SEC-MALS; the two may be the same construct; not shown: His6, N-terminal, cleaved; lipoyl domain of B. stearothermophilus dihydrolipoamide acetyltransferase, N-terminal, cleaved; GGS, N-terminal, kept
Which “stoichiometry N” value [2] does the source give for B1 here?
Its value is 4.

B2: zebrafish p53 tetramerization domain deletion variant lacking helix H2, DRp53(302-331) (domain or fragment, zebrafish (Danio rerio), UniProt G1K2L5 302-331, looked up)
chain: EEIFTLQVRGRERYEILKKLNDSLELSDVV
notes: numbering on UniProt/TrEMBL entry G1K2L5 (length of 374 amino acids); same vector and cleavage here; also called truncated domain; short variant; not shown: His6, N-terminal, cleaved; lipoyl domain of B. stearothermophilus dihydrolipoamide acetyltransferase, N-terminal, cleaved
Which “stoichiometry N” value [3] does the source give for B2 here?
The value was 4.

B3: zebrafish p53 tetramerization domain, DRp53(302-346) (domain or fragment, zebrafish (Danio rerio), UniProt G1K2L5 302-346, looked up)
chain: EEIFTLQVRGRERYEILKKLNDSLELSDVVPASDAEKYRQKFMTK
notes: numbering on UniProt/TrEMBL entry G1K2L5 (length of 374 amino acids); Crystallised construct; same vector and cleavage here; also called full-length tetramerization domain; long variant; not shown: His6, N-terminal, cleaved; lipoyl domain of B. stearothermophilus dihydrolipoamide acetyltransferase, N-terminal, cleaved
Does B3 bind [4]?
Result: binds

Reference: paper PMC4155161 (Structure(London, England:1993), 2014)
